Where “and” joins values, the source holds several entries; their conditions need not be identical. Identical values can stand only once. Like-named read-outs stand apart in the source and are kept apart here.
Experiments:
[1] = target: peptide on HLA-A*02:01 (human)
[2] = target: NY-ESO-1 peptide on HLA-A*02:01 (human)
[3] = target: peptide on HLA-A*02:01 (human); remark: listed apart in the source
[4] = target: CMV-pp65495-503-TCR, on Jurkat T cells; experiment: cell-based or functional assay
[5] = target: NY-ESO-1 TCR, clone 1G4 mutated version (a95:LY) with high affinity, on Jurkat T cells; experiment: cell-based or functional assay
[6] = target: pp65495-503 tetramer-positive primary human T cells (their TCRs)
[7] = target: CMV-pp65495-503-TCR, on Jurkat T cells
[8] = target: CMV-pp65495-503-TCR, on Jurkat T cells; remark: listed apart in the source
[9] = target: CMV-pp65495-503-TCR, on Jurkat T cells; remark: listed apart in the source
[10] = target: pp65495-503 tetramer-positive primary human T cells (their TCRs); remark: listed apart in the source
[11] = target: Anti-Her2 BCR on B cells (from Trastuzumab vector, with PDGFR TM); experiment: flow cytometry; GFP viruses displaying HER2 on HER2-BCR+ B cells
[12] = target: NY-ESO-1 TCR, clone 1G4 mutated version (a95:LY) with high affinity, on Jurkat T cells
[13] = target: NY-ESO-1 TCR, clone 1G4 mutated version (a95:LY) with high affinity, on Jurkat T cells; remark: listed apart in the source
[14] = target: NY-ESO-1 TCR, clone 1G4 mutated version (a95:LY) with high affinity, on Jurkat T cells; remark: listed apart in the source
[15] = target: anti-SAR2-RBD BCR on B cells (RBD antibody of PDB 7BWJ with human IgG1 Fc and PDGFR TM); experiment: flow cytometry; GFP viruses displaying RBD on RBD-BCR+ B cells
[16] = target: Flu-m158-66-TCR, on Jurkat T cells

Q: What does the source list for “NY-ESO-1 TCR, clone 1G4, wild-type (1G4 wt)”?
A: Kd [1]: 10.8 µM and 84.9 µM; Kd [2]: 10.8 µM and 84.9 µM; Kd [3]: 10.8 µM and 84.9 µM

Q: Which results are given for “CMV pp65495-503 (…) presented by HLA-A0201, single-chain trimer of pMHC displayed on the lentiviral surface (from UniProt P61769 21-119) (peptide-MHC)”?
A: GFP transgene expression after infection (cargo delivery) [4]: 82%; depletion of on-target T cells after HSV-TK gene delivery and GCV treatment, against GFP gene delivery [4]: 8 fold; GFP transgene expression after infection (cargo delivery) [5]: 0.22%; percent of tetramer+ T cells labeled [6]: 99%; percent of T cells GFP+ [7]: > 87%; percent of tetramer positive cells that were GFP+ [8]: > 90%; percent of antigen+ cells matched with the corresponding TCR sequence [9]: 99.8%; percent of tetramer-positive T cells labeled [10]: 83%; percent of tetramer-positive T cells recovered [10]: 98%

Q: Which percent of B cells detected (GFP+) [11] does the source give for “truncated Her2 (a1-a700) with its native TM domain, displayed on the lentiviral surface (from UniProt P04626 23-700) (receptor)” here?
A: 76%

Q: With “NY-ESO-1157-165 (…) presented by HLA-A0201, single-chain trimer of pMHC displayed on the lentiviral surface (from UniProt P61769 21-119) (peptide-MHC)” as the substance, how does the percent of TCR-T cells stained [12] read?
A: 95.7%

Q: And the percent of T cells GFP+ [13]?
A: > 87%

Q: What about the percent of T cells labeled (GFP+) [13] of the same substance?
A: 88.2%

Q: What about the percent of antigen+ cells matched with the corresponding TCR sequence [14] of the same substance?
A: 97.4%

Q: With “Receptor Binding Domain (RBD) from SARS-CoV-2 spike protein fused with ICAM1 TM domain, displayed on (from UniProt P0DTC2 319-541)” as the substance, how does the percent of B cells labeled (GFP+) [15] read?
A: 88%

Q: What does the source list for “HPV16 E782-91 peptide presented by HLA-A2, single-chain trimer of pMHC displayed on the lentiviral s (from UniProt P03129 82-91; P61769 21-119) (peptide-MHC)”?
A: percent of T cells labeled (GFP+) [16]: 1%; percent of T cells labeled (GFP+) [7]: 1%; percent of T cells labeled (GFP+) [13]: 1%

— patent publication US20250027073A1
